Source: patent US20190352376A1
Numbering of substitutions follows the chain as printed. “And” between values parts separate entries of the source, which are not always exact repeats. Equal entries are not always repeated. Where two headings read alike, the source gives them in different places.

B1: F211-9D1 (antibody, V domains shown)
VL: DIVMSQSPSSLAVSVGEKVTMSCKSSQSLLNSRNQKNHLAWYQQKPGQSPKLLIYWASTRESGVPDRFSGDGSGTDFTLTISSVKAEDLAVYYCQQYYTYRTFGGGTKLEIK
VH: DVQLQESGPGLVKPSQSLSLTCSVTGYSITSDYYWNWIRQFPGNKLEWMAYIGYDGSKNYNPSLKNRISITRDTSKNQFFLKLNSVTTDDTATYYCTRDRANWDDYFDYWGQGTTLTVSS
B2: F211-11H12 (antibody, V domains shown)
VH: B1 VH with S57T
VL: B1 VL with S69T
B3: F211-11H12 (antibody, V domains shown)
VL: B1 VL with S69T
VH: B1 VH with S57T
B4: CHO-11H12 (antibody, V domains shown)
VL: B1 VL with S69T
VH: B1 VH with S57T
B5: F211-9D1 (antibody, V domains shown)
VH: B1 VH
VL: B1 VL
B6: F211-10A9 (antibody, V domains shown)
VL: DIVMTQSPSSLAMSVGQKVTMSCKSSQSLLNSDTQKNFLAWYQQKPGQSPKILVYFASTKESGVPDRFIGSGSGTDFTLTITSVQAEDLADYFCQQYYSIPLTFGAGTKLELK
VH: QIQLQQSGPELVKPGAPVKISCKASGYTFTDYYIHWVNQRPGQGLEWIGYIYPGNGHTVYNQKFKVRATLTADNPSSTAYLQLNSLTSEDSGVYFCAYDLFNYWGQGTLVTVSA
B7: CHO-10A9 (antibody, V domains shown)
VL: B6 VL
VH: B6 VH
B8: F211-10A9 (antibody, V domains shown)
VH: B6 VH
VL: B6 VL

Legend:
[1] = molecular target: T1, peptide-conjugate (Example 1; lactosyl-Ser-…-Cys coupled to KLH) (influenza virus)
[2] = molecular target: hemagglutinin of H7N7 A/Netherlands/219/2003 (influenza virus H7N7 A/Netherlands/219/2003); experiment: dot blot, 4M urea; rHA (Prot. Sc.), dot 9
Non-related protein = experiment: dot blot, 4M urea; negative control, dot 16
[3] = molecular target: hemagglutinin of H5N1 A/Indonesia/05/2005 (influenza virus H5N1 A/Indonesia/05/2005); experiment: dot blot, 4M urea; rHA (Prot. Sc.), dot 7
[4] = molecular target: hemagglutinin of H5N1 A/Indonesia/05/2005 (influenza virus H5N1 A/Indonesia/05/2005)
[5] = molecular target: hemagglutinin of H5N1 A/Vietnam/1203/2004 (influenza virus H5N1 A/Vietnam/1203/2004); experiment: dot blot, 4M urea; rHA (Prot. Sc.), dot 8
[6] = molecular target: hemagglutinin of H9N2 A/Hong Kong/1073/1999 (influenza virus H9N2 A/Hong Kong/1073/1999); experiment: dot blot, 4M urea; rHA (Prot. Sc.), dot 10
[7] = molecular target: peptide of Example 1 (influenza virus); experiment: SPR, mAb captured on anti-mouse Fc, peptide injected; average
[8] = molecular target: peptide of Example 1 (influenza virus); experiment: SPR, mAb captured on anti-mouse Fc, peptide injected
[9] = molecular target: T1, peptide-conjugate (Example 1; …); remark: listed apart in the source

Binder | signal intensity (arbitrary fluorescent units) [2] | signal intensity (arbitrary fluorescent units) (Non-related protein) | signal intensity (arbitrary fluorescent units) [3] | signal intensity (arbitrary fluorescent units) [4] | signal intensity (arbitrary fluorescent units) [5] | signal intensity (arbitrary fluorescent units) [6] | Kd [7] [nM] | further results
B1 | – | – | – | – | – | – | – | EC50 (read off the curve) [1]: 0.03 µg/mL
B2 | 488 | 38 | 22200 | 43100 | 45900 | 3570 | – | –
B3 | – | – | – | – | – | – | 0.465 | Kd [8]: 0.465 nM
B4 | – | – | – | – | – | – | 0.639 | –
B5 | 425 | 47 | 10100 | 46700 | 46800 | 3760 | – | –
B6 | – | – | – | – | – | – | 0.338 | Kd [8]: 0.338 nM; EC50 (read off the curve) [9]: 0.05 µg/mL and 0.03 µg/mL
B7 | – | – | – | – | – | – | 0.365 | –
B8 | 42000 | 34 | 165 | 28600 | 8260 | 2970 | – | –
